# Experimental data as given in US20240287154A1, “MC3R AGONIST PEPTIDES” (The Regents of the University of Michigan, priority 2021, published 2024).
# Non-standard residues stand in square brackets, D forms with d. PKcap1 = N-terminal cap C18 diacid-γGlu-mPEG2; Bip = N[C@@H](Cc1ccc(-c2ccccc2)cc1)C(=O)O; Phe(4-Br) = N[C@@H](Cc1ccc(Br)cc1)C(=O)O; Phe(4-Cl) = N[C@@H](Cc1ccc(Cl)cc1)C(=O)O; Phe(4-I) = N[C@@H](Cc1ccc(I)cc1)C(=O)O; Nle = CCCC[C@H](N)C(=O)O; dAbu = CC[C@@H](N)C(=O)O; Aib = CC(C)(N)C(=O)O
# B1: CTX-1145 (peptide)
# peptide: Ac-[Nle][dA]HFR[dW]DR[dF]G-OH
# SMILES: CCCC[C@H](NC(C)=O)C(=O)N[C@H](C)C(=O)N[C@@H](Cc1c[nH]cn1)C(=O)N[C@@H](Cc1ccccc1)C(=O)N[C@@H](CCCNC(=N)N)C(=O)N[C@H](Cc1c[nH]c2ccccc12)C(=O)N[C@@H](CC(=O)O)C(=O)N[C@@H](CCCNC(=N)N)C(=O)N[C@H](Cc1ccccc1)C(=O)NCC(=O)O
# B2: CTX-1158 (peptide)
# peptide: Ac-[Nle][dA]HFR[dW]DRF-NH2
# SMILES: CCCC[C@H](NC(C)=O)C(=O)N[C@H](C)C(=O)N[C@@H](Cc1c[nH]cn1)C(=O)N[C@@H](Cc1ccccc1)C(=O)N[C@@H](CCCNC(=N)N)C(=O)N[C@H](Cc1c[nH]c2ccccc12)C(=O)N[C@@H](CC(=O)O)C(=O)N[C@@H](CCCNC(=N)N)C(=O)N[C@@H](Cc1ccccc1)C(N)=O
# B3: CTX-1159 (peptide)
# peptide: Ac-[Nle][dA]HFR[dW]DR[dF]-NH2
# SMILES: CCCC[C@H](NC(C)=O)C(=O)N[C@H](C)C(=O)N[C@@H](Cc1c[nH]cn1)C(=O)N[C@@H](Cc1ccccc1)C(=O)N[C@@H](CCCNC(=N)N)C(=O)N[C@H](Cc1c[nH]c2ccccc12)C(=O)N[C@@H](CC(=O)O)C(=O)N[C@@H](CCCNC(=N)N)C(=O)N[C@H](Cc1ccccc1)C(N)=O
# B4: CTX-1108 (peptide)
# peptide: H-YV[Nle][dA]HFR[dW]D-NH2
# SMILES: CCCC[C@H](NC(=O)[C@@H](NC(=O)[C@@H](N)Cc1ccc(O)cc1)C(C)C)C(=O)N[C@H](C)C(=O)N[C@@H](Cc1c[nH]cn1)C(=O)N[C@@H](Cc1ccccc1)C(=O)N[C@@H](CCCNC(=N)N)C(=O)N[C@H](Cc1c[nH]c2ccccc12)C(=O)N[C@@H](CC(=O)O)C(N)=O
# B5: CTX-1160 (peptide)
# peptide: Ac-[Nle][dA]HFR[dW]DR[dF]K-OH
# SMILES: CCCC[C@H](NC(C)=O)C(=O)N[C@H](C)C(=O)N[C@@H](Cc1c[nH]cn1)C(=O)N[C@@H](Cc1ccccc1)C(=O)N[C@@H](CCCNC(=N)N)C(=O)N[C@H](Cc1c[nH]c2ccccc12)C(=O)N[C@@H](CC(=O)O)C(=O)N[C@@H](CCCNC(=N)N)C(=O)N[C@H](Cc1ccccc1)C(=O)N[C@@H](CCCCN)C(=O)O
# B6: CTX-1167 (peptide)
# peptide: Ac-[Nle][dA]H[Phe(4-I)]R[dW]DRFG-OH
# SMILES: CCCC[C@H](NC(C)=O)C(=O)N[C@H](C)C(=O)N[C@@H](Cc1c[nH]cn1)C(=O)N[C@@H](Cc1ccc(I)cc1)C(=O)N[C@@H](CCCNC(=N)N)C(=O)N[C@H](Cc1c[nH]c2ccccc12)C(=O)N[C@@H](CC(=O)O)C(=O)N[C@@H](CCCNC(=N)N)C(=O)N[C@@H](Cc1ccccc1)C(=O)NCC(=O)O
# B7: CTX-1169 (peptide)
# peptide: Ac-[Nle][dA]H[Phe(4-I)]R[dW]DRF-NH2
# SMILES: CCCC[C@H](NC(C)=O)C(=O)N[C@H](C)C(=O)N[C@@H](Cc1c[nH]cn1)C(=O)N[C@@H](Cc1ccc(I)cc1)C(=O)N[C@@H](CCCNC(=N)N)C(=O)N[C@H](Cc1c[nH]c2ccccc12)C(=O)N[C@@H](CC(=O)O)C(=O)N[C@@H](CCCNC(=N)N)C(=O)N[C@@H](Cc1ccccc1)C(N)=O
# B8: CTX-1170 (peptide)
# peptide: Ac-[Nle][dA]H[Phe(4-I)]R[dW]DR-NH2
# SMILES: CCCC[C@H](NC(C)=O)C(=O)N[C@H](C)C(=O)N[C@@H](Cc1c[nH]cn1)C(=O)N[C@@H](Cc1ccc(I)cc1)C(=O)N[C@@H](CCCNC(=N)N)C(=O)N[C@H](Cc1c[nH]c2ccccc12)C(=O)N[C@@H](CC(=O)O)C(=O)N[C@@H](CCCNC(=N)N)C(N)=O
# B9: CTX-1143 (peptide)
# peptide: Ac-[Nle][Aib]HFR[dW]DRFG-OH
# SMILES: CCCC[C@H](NC(C)=O)C(=O)NC(C)(C)C(=O)N[C@@H](Cc1c[nH]cn1)C(=O)N[C@@H](Cc1ccccc1)C(=O)N[C@@H](CCCNC(=N)N)C(=O)N[C@H](Cc1c[nH]c2ccccc12)C(=O)N[C@@H](CC(=O)O)C(=O)N[C@@H](CCCNC(=N)N)C(=O)N[C@@H](Cc1ccccc1)C(=O)NCC(=O)O
# B10: CTX-1144 (peptide)
# peptide: Ac-[Nle][dAbu]HFR[dW]DRFG-OH
# SMILES: CCCC[C@H](NC(C)=O)C(=O)N[C@H](CC)C(=O)N[C@@H](Cc1c[nH]cn1)C(=O)N[C@@H](Cc1ccccc1)C(=O)N[C@@H](CCCNC(=N)N)C(=O)N[C@H](Cc1c[nH]c2ccccc12)C(=O)N[C@@H](CC(=O)O)C(=O)N[C@@H](CCCNC(=N)N)C(=O)N[C@@H](Cc1ccccc1)C(=O)NCC(=O)O
# B11: CTX-1163 (peptide)
# peptide: Ac-[Nle][dA]HFR[dW]DR-NH2
# SMILES: CCCC[C@H](NC(C)=O)C(=O)N[C@H](C)C(=O)N[C@@H](Cc1c[nH]cn1)C(=O)N[C@@H](Cc1ccccc1)C(=O)N[C@@H](CCCNC(=N)N)C(=O)N[C@H](Cc1c[nH]c2ccccc12)C(=O)N[C@@H](CC(=O)O)C(=O)N[C@@H](CCCNC(=N)N)C(N)=O
# B12: CTX-1164 (peptide)
# peptide: Ac-[Nle][dA]HFR[dW]GKPV-NH2
# SMILES: CCCC[C@H](NC(C)=O)C(=O)N[C@H](C)C(=O)N[C@@H](Cc1c[nH]cn1)C(=O)N[C@@H](Cc1ccccc1)C(=O)N[C@@H](CCCNC(=N)N)C(=O)N[C@H](Cc1c[nH]c2ccccc12)C(=O)NCC(=O)N[C@@H](CCCCN)C(=O)N1CCC[C@H]1C(=O)N[C@H](C(N)=O)C(C)C
# B13: CTX-1165 (peptide)
# peptide: Ac-[Nle][dA]H[Phe(4-Br)]R[dW]DRFG-OH
# SMILES: CCCC[C@H](NC(C)=O)C(=O)N[C@H](C)C(=O)N[C@@H](Cc1c[nH]cn1)C(=O)N[C@@H](Cc1ccc(Br)cc1)C(=O)N[C@@H](CCCNC(=N)N)C(=O)N[C@H](Cc1c[nH]c2ccccc12)C(=O)N[C@@H](CC(=O)O)C(=O)N[C@@H](CCCNC(=N)N)C(=O)N[C@@H](Cc1ccccc1)C(=O)NCC(=O)O
# B14: CTX-1166 (peptide)
# peptide: Ac-[Nle][dA]H[Phe(4-Cl)]R[dW]DRFG-OH
# SMILES: CCCC[C@H](NC(C)=O)C(=O)N[C@H](C)C(=O)N[C@@H](Cc1c[nH]cn1)C(=O)N[C@@H](Cc1ccc(Cl)cc1)C(=O)N[C@@H](CCCNC(=N)N)C(=O)N[C@H](Cc1c[nH]c2ccccc12)C(=O)N[C@@H](CC(=O)O)C(=O)N[C@@H](CCCNC(=N)N)C(=O)N[C@@H](Cc1ccccc1)C(=O)NCC(=O)O
# B15: CTX-1122 (peptide)
# peptide: Ac-[Nle][dA]HFR[dW]DRFG-OH
# SMILES: CCCC[C@H](NC(C)=O)C(=O)N[C@H](C)C(=O)N[C@@H](Cc1c[nH]cn1)C(=O)N[C@@H](Cc1ccccc1)C(=O)N[C@@H](CCCNC(=N)N)C(=O)N[C@H](Cc1c[nH]c2ccccc12)C(=O)N[C@@H](CC(=O)O)C(=O)N[C@@H](CCCNC(=N)N)C(=O)N[C@@H](Cc1ccccc1)C(=O)NCC(=O)O
# B16: CTX-1168 (peptide)
# peptide: Ac-[Nle][dA]H[Bip]R[dW]DRFG-NH2
# SMILES: CCCC[C@H](NC(C)=O)C(=O)N[C@H](C)C(=O)N[C@@H](Cc1c[nH]cn1)C(=O)N[C@@H](Cc1ccc(-c2ccccc2)cc1)C(=O)N[C@@H](CCCNC(=N)N)C(=O)N[C@H](Cc1c[nH]c2ccccc12)C(=O)N[C@@H](CC(=O)O)C(=O)N[C@@H](CCCNC(=N)N)C(=O)N[C@@H](Cc1ccccc1)C(=O)NCC(N)=O
# B17: CTX-1171 (peptide)
# peptide: H-[dY]V[Nle][dA]H[Phe(4-I)]R[dW]D-NH2
# SMILES: CCCC[C@H](NC(=O)[C@@H](NC(=O)[C@H](N)Cc1ccc(O)cc1)C(C)C)C(=O)N[C@H](C)C(=O)N[C@@H](Cc1c[nH]cn1)C(=O)N[C@@H](Cc1ccc(I)cc1)C(=O)N[C@@H](CCCNC(=N)N)C(=O)N[C@H](Cc1c[nH]c2ccccc12)C(=O)N[C@@H](CC(=O)O)C(N)=O
# Biological target: human MC3R (human, UniProt P41968 1-323)
# Sequence (P41968 whole entry): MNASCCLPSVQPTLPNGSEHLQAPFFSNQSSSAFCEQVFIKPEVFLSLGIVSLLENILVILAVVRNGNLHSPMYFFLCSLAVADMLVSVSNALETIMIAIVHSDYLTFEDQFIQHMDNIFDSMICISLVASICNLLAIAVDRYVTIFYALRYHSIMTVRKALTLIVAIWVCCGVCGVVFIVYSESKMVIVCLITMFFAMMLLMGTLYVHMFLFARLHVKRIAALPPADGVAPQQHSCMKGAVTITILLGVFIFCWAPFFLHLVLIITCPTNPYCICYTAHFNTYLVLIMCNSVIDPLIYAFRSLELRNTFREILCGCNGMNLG
# Assay: cell-based or functional assay
Binder,MC3R cAMP (EC50) [nM],MC3R selectivity (relative to MC4R)
YVXAHFRWDRFG (Nle at 3; D-Ala at 4; Phe(4-Br) at 6; D-Trp at 8) [CTX-2120],2.3,173
YVXAHFRWDRFG (Nle at 3; D-Ala at 4; Phe(4-Cl) at 6; D-Trp at 8) [CTX-2121],2.5,93
YVXAHFRWDRFG (Nle at 3; D-Ala at 4; Phe(4-I) at 6; D-Trp at 8) [CTX-2122],3.2,324
B1,52.9,535
B2,2.6,535
B3,14.3,213
B4,12,79
B5,9.8,1260
B6,4.8,937
B7,4.8,200
B8,26,67
B9,13.4,3540
B10,6.6,2630
B11,19.4,282
B12,1.5,83
B13,3,5600
B14,1.6,3100
B15,1.2,7700
B16,28.6,485
B17,54,234
PKcap1-G[Nle][dA]HFR[dW]DRFG-OH [CTX-1147],556,335
"PKcap1-GV[Nle][dA]HFR[dW]DRFG-OH [CTX-1149 (PKcap1, SEQ ID NO 40)]",313,215
PKcap1-G[dY]V[Nle][dA]HFR[dW]D[dR]FG-OH [CTX-1155],3130,415
